These results are taken from patent publication US12144864B2, “Tubulysins and protein-tubulysin conjugates” (Regeneron Pharmaceuticals, Inc., priority 2018, dated 2024).

Series [1] in a line: In vitro plasma stability of ADCs (DAR by LC-MS), mouse plasma. The class given is in vitro ADME. Particulars: 37° C., 50 μg/mL, DAR at 0 hr 3.8 (LP3 ADC), 4.0 (LP4 ADC), acetyl-hydrolyzed species counted as loss of drug. As to the method: (§1) To determine the plasma stability of representative ADCs containing the tubulysin payloads, ADCs were incubated in vitro with plasma from different species, and the DAR was evaluated after incubation at physiological temperature (37° C.) for 3 days.
(§2) For the assay, each ADC sample (anti-PRLR antibody-LP3 or anti-PRLR antibody-LP4) in PBS buffer was added to fresh pooled male mouse, cynomologus monkey, rat, or human plasma, separately, at a final concentration of 50 μg/mL in a 96-well plate, and subsequently incubated at 37° C. for 72 hours. After incubation, each sample (100 μL final volume) was individually frozen at −80° C. until analysis.
(§3) Affinity capture of the ADCs from the plasma samples was carried out on a KingFisher 96 magnetic particle processor (Thermo Electron). First, biotinylated extracellular domain of human PRLR expressed with a myc-myc hexahistidine tag (hPRLR ecto-MMH; SEQ ID NO: 17;100 μg/mL) was immobilized on streptavidin paramagnetic beads (In vitrogen, Cat #60210). Each plasma sample containing tubulysin ADCs (100 μL) was mixed at 600 rpm with 100 μL of the beads (the commercial beads come in volume) at room temperature for 2 hours in a 96-well plate. The beads were then washed three times with 600 μL of HBS-EP (GE healthcare, Cat #BR100188), once with 600 μL of H2O, and then once with 600 μL of 10% acetonitrile in water. […]

Series [2] can be described thus: In vitro plasma stability of ADCs (DAR by LC-MS), cynomolgus monkey plasma. The class given is in vitro ADME. Particulars: 37° C., 50 μg/mL, DAR at 0 hr 3.8 (LP3 ADC), 4.0 (LP4 ADC), acetyl-hydrolyzed species counted as loss of drug. How it is done:
as §1, §2, §3

The nature of series [3]: In vitro plasma stability of ADCs (DAR by LC-MS), rat plasma. The series is classed as in vitro ADME. To be noted: 37° C., 50 μg/mL, DAR at 0 hr 3.8 (LP3 ADC), 4.0 (LP4 ADC), acetyl-hydrolyzed species counted as loss of drug. How it is done: as §1, §2, §3
Series [4] is described as follows: In vitro plasma stability of ADCs (DAR by LC-MS), human plasma. The series is classed as in vitro ADME. To be noted: 37° C., 50 μg/mL, DAR at 0 hr 3.8 (LP3 ADC), 4.0 (LP4 ADC), acetyl-hydrolyzed species counted as loss of drug. As to the method:
as §1, §2, §3

A further series deals with HCT15/PRLR cells. As to the kind of experiment: Cytotoxicity of anti-PRLR tubulysin ADCs and payloads in HCT15/PRLR cells with or without Verapamil. To be noted: at maximum concentration tested. The class given is cell-based, human. In outline: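 HCT15 cells stably expressing full-length human PRLR were treated with ADCs or free payloads at 3-fold serial dilutions from 100 nM, with or without […] Verapamil, for 5 days at 37° C. Viability was read by CellTiter-Glo ATP luminescence. IC50 came from a four-parameter logistic fit, and % kill at the top concentration as 100−% viable.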

The target in series [5] is T1, STEAP2 endogenously expressed on C4-2 prostate cancer cells (human, UniProt Q8NFT2 1-490).
T1 sequence (looked up): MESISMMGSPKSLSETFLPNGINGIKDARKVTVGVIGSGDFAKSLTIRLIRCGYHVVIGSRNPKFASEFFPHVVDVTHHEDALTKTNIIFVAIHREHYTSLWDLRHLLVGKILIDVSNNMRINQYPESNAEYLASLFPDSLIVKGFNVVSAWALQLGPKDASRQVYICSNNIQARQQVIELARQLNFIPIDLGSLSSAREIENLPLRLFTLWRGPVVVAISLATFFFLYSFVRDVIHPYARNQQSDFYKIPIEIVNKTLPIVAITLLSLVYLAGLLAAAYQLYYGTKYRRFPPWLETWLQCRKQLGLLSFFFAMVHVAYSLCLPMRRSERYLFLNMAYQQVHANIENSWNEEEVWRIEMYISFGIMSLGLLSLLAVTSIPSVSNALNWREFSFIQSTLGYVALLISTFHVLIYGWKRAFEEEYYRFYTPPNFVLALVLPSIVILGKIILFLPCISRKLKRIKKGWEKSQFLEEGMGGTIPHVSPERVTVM
As to the kind of experiment: cell-based or functional assay.

The next series deals with C4-2 cells. As to the kind of experiment: Cytotoxicity of anti-STEAP2 ADCs, payloads and reference compounds in C4-2 cells. The series is classed as cell-based, human. To be noted: at maximum concentration tested. How it is done: To test the ability of the disclosed tubulysin payloads to kill human cell lines, an in vitro cytotoxicity assay was performed. In vitro cytotoxicity of the disclosed payloads, as well as reference compounds, were evaluated using the CellTiter-Glo Assay Kit (Promega, Cat #G7573), in which the quantity of ATP present is used to determine the number of viable cells in culture. For the assay, C4-2, HEK293, or T47D cells were seeded at 4000 cells/well on Nunclon white 96-well plates in complete growth medium (DME high glucose:Ham's F12 at 4:1, 10% FBS, 100 units/ml Penicillin, 100 ug/ml streptomycin, 53 ug/ml glutatmine, 10 ug/ml insulin, 220 ng/ml biotin, 12.5 pg/ml T3, 12.5 ug/ml Adenine, 4 ug/ml transferrin for C42 cells; DME high glucose, 10% FBS, 100 units/ml Penicillin, 100 ug/ml streptomycin, 53 ug/ml glutatmine for HEK293; RPMI, 10% FBS, 100 units/ml Penicillin, 100 ug/ml streptomycin, 53 ug/ml glutatmine, 10 ug/ml insulin, 10 mM HEPEs, 200 nM Sodium Pyruvate for T47D cells) and grown overnight at 37° C. in 5% CO2. For cell viability curves, 1:3 serially diluted payloads were added to the cells at final concentrations ranging from 100 nM to […], including a no treatment control group, and were then incubated for 5 days. After the 5-day incubation, cells were incubated at room temperature with 100 μL of CellTiter-Glo reagents for 10 minutes. Relative luminescence units (RLU) were determined on a Victor plate reader (PerkinElmer). The IC50 values were determined from a four-parameter logistic equation over a 10-point response curve (GraphPad Prism). All IC50 values are expressed in molar (M) concentration. The percent cell killing (% kill) at the maximum concentration tested was estimated from the following formula (100−% viable cells). Averages±standard deviation (SD) are included where replicate experiments were performed.
To further test the ability of the disclosed tubulysin payloads, reference compounds, and antibody drug conjugates using these payloads, a cytotoxicity assay was performed using C4-2 cells as described in this example (see above). For these studies, anti-STEAP2 antibodies were conjugated to select tubulysins payloads, and the compounds were tested at concentrations starting at 100 nM with 3-fold serial dilution. All IC50 values are expressed in nM concentration and the percent cell killing at the maximum concentration tested was estimated from the following formula (100−% viable cells).

B1: Anti-PRLR-LP4 (conjugate)
VH: QVQLVESGGGVVQPGRSLRLSCGASGFTFRNYGMQWVRQGPGKGLEWVTLISFDGNDKYYADSVKGRFTISRDNSKNTLFLQMNSLRTEDTAVYYCARGGDFDYWGQGTLVTVSS
VL: DIQMTQSPSSLSASVGDRVTITCRASQDIRKDLGWYQQKPGKAPKRLIYAASSLHSGVPSRFSGSGSGTEFTLTISSLQPEDFATYYCLQHNSYPMYTFGQGTKLEIK
modifications: non-natural residues
Regarding B1, the “DAR after 72 hours of incubation” value is on record as 2.7 in series [1], 2.7 in series [2], 2.6 in series [3] and 3.0 in series [4]. Besides, the “% kill on HCT15/PRLR w/ Verapamil” value with HCT15/PRLR cells (with Verapamil) turned out to be 91%. For the same molecule, the “% kill on HCT15/PRLR w/o Verapamil” value in the series on HCT15/PRLR cells (without Verapamil) came to 65%.

B2: anti-STEAP2-LP5 (antibody, V domains shown)
VH: QVQLVESGGGVVQPGRSLRLSCVASGFTISSYGMNWVRQAPGKGLEWVAVISYDGGNKYSVDSVKGRFTISRDNSKNTLYLQMNSLRAEDSAVYYCARGRYFDLWGRGTLVTVSS
VL: DIQMTQSPSTLSASVGDRVTITCRASQSISSWLAWYQQKPGRAPNLLISKASSLKSGVPSRFSGSGSGTEFTLTVSSLQPDDFATYYCQQYYSYSYTFGQGTKLEIK
modifications: linker-payload LP5 (DIBAC-suc-PEG4-VA, payload IVd) conjugated; site and DAR of this conjugate not printed (the site-specific procedure uses N297Q, EU numbering, with azido-PEG3-amine on glutamines)
For the molecule B2, the “IC50, cytotoxicity in the C4-2 cell based assay (CellTiter-Glo)” value in series [5] was found to be 0.28 nM. Also, the “% kill” value in the series on C4-2 cells came to 96%.
